# B1: Double-strand-break repair protein rad21 homolog (Homo sapiens), O60216 (parent)
# chain: MFYAHFVLSKRGPLAKIWLAAHWDKKLTKAHVFECNLESSVESIISPKVKMALRTSGHLLLGVVRIYHRKAKYLLADCNEAFIKIKMAFRPGVVDLPEENREAAYNAITLPEEFHDFDQPLPDLDDIDVAQQFSLNQSRVEEITMREEVGNISILQENDFGDFGMDDREIMREGSAFEDDDMLVSTTTSNLLLESEQSTSNLNEKINHLEYEDQYKDDNFGEGNDGGILDDKLISNNDGGIFDDPPALSEAGVMLPEQPAHDDMDEDDNVSMGGPDSPDSVDPVEPMPTMTDQTTLVPNEEEAFALEPIDITVKETKAKRKRKLIVDSVKELDSKTIRAQLSDYSDIVTTLDLAPPTKKLMMWKETGGVEKLFSLPAQPLWNNRLLKLFTRCLTPLVPEDLRKRRKGGEADNLDEFLKEFENPEVPREDQQQQHQQRDVIDEPIIEEPSRLQESVMEASRTNIDESAMPPPPPQGVKRKAGQIDPEPVMPPQQVEQMEIPPVELPPEEPPNICQLIPELELLPEKEKEKEKEKEDDEEEEDEDASGGDQDQEERRWNKRTQQMLHGLQRALAKTGAESISLLELCRNTNRKQAAAKFYSFLVLKKQQAIELTQEEPYSDIIATPGPRFHII
# partner: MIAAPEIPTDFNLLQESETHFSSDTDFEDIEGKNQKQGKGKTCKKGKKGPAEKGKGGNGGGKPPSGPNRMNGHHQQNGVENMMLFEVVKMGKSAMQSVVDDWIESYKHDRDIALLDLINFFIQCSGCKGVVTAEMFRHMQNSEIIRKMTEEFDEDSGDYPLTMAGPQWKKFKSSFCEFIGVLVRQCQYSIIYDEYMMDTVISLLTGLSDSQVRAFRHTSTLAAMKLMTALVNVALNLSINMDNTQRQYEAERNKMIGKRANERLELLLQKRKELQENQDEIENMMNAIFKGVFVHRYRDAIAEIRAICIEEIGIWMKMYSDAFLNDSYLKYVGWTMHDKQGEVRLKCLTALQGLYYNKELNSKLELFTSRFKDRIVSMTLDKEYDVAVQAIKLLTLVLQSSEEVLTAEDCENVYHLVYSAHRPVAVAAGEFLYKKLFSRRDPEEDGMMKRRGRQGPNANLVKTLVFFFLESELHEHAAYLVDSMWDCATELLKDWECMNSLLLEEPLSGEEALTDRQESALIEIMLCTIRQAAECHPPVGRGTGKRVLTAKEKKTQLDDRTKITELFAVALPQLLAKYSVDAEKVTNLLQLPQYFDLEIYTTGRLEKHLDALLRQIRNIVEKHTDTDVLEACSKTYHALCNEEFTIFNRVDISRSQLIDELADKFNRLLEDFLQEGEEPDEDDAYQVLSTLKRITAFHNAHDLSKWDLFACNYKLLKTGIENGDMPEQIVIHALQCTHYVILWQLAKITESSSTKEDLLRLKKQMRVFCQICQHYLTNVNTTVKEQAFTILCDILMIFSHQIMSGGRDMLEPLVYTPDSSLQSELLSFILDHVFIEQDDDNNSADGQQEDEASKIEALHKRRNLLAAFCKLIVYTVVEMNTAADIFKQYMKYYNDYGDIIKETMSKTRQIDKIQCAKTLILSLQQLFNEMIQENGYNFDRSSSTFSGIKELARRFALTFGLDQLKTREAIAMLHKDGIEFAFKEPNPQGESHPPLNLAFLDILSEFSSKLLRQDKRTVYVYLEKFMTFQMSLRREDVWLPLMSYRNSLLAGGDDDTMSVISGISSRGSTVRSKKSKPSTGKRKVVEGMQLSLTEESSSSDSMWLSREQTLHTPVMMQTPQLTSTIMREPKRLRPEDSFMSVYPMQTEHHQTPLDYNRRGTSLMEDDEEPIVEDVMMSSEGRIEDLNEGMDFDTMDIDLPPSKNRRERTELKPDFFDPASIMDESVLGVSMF
# B2: Cohesin subunit SA-2 (Homo sapiens), Q8N3U4 (parent)
# chain: B1 partner
# partner: B1 chain
# B3: Cohesin subunit SA-2 (Homo sapiens), Q8N3U4 (parent)
# chain: B1 partner
# partner: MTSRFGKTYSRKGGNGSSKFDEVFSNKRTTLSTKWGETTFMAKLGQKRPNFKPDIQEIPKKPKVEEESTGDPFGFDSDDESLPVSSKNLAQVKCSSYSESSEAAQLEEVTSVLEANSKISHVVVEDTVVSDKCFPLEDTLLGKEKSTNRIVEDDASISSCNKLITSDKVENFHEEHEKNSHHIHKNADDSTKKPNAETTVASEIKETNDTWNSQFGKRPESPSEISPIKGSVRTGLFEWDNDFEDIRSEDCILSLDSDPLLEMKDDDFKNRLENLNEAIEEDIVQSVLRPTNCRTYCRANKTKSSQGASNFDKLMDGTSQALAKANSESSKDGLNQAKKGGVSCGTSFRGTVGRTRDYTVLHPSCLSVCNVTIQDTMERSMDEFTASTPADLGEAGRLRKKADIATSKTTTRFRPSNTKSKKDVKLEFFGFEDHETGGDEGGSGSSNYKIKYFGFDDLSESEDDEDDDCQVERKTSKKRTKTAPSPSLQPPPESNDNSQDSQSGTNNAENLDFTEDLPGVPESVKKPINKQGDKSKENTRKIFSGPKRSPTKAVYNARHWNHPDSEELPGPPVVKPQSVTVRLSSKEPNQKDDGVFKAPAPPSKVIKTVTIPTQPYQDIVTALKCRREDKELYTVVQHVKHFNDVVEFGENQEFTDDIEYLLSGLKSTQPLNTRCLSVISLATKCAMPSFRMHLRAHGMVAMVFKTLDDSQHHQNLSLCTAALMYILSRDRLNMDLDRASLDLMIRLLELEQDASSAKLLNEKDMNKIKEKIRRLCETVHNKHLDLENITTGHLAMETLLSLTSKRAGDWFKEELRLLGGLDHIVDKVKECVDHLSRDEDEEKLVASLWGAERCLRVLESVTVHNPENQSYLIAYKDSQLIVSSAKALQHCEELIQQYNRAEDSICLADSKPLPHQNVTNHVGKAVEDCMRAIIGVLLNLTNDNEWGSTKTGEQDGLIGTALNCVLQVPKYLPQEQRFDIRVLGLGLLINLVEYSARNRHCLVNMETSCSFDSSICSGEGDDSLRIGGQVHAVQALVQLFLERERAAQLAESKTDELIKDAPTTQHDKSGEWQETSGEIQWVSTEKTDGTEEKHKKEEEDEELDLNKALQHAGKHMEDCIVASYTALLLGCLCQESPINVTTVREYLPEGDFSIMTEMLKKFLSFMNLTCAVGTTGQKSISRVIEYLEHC
# Variants of: B1
# Conditions: with stag2_human STAG2, Q8N3U4
row,Variant,effect of a mutation on the interaction
1,D327K,decreasing interaction strength

# Variants of: B1
# Conditions: with stag2_human STAG2, Q8N3U4
# Remark: another data set of the same source
row,Variant,effect of a mutation on the interaction
1,L385A;L388A;F389A,disrupting interaction strength

# Variants of: B2
# Conditions: with rad21_human RAD21, O60216
row,Variant,effect of a mutation on the interaction
1,D793K,disrupting interaction strength

# Variants of: B3
# Conditions: with wapl_human WAPL
row,Variant,effect of a mutation on the interaction
1,W334A,decreasing interaction strength
2,K290E,disrupting interaction strength
3,D326K,disrupting interaction strength
4,K330E,disrupting interaction strength
